The record followed here is IntAct's records for PubMed 10487758.

First the molecules themselves.
B1: Protein E6 (Human papillomavirus type 16), P03126 (parent)
chain: MHQKRTAMFQDPQERPRKLPQLCTELQTTIHDIILECVYCKQQLLRREVYDFAFRDLCIVYRDGNPYAVCDKCLKFYSKISEYRHYCYSLYGTTLEQQYNKPLCDLLIRCINCQKPLCPEEKQRHLDKKQRFHNIRGRWTGRCMSCCRSSRTRRETQL

In one assay the parent is B1. The following applies: with ep300_human EP300, Q09472.
Chain of ep300_human EP300, Q09472 (Q09472 whole entry): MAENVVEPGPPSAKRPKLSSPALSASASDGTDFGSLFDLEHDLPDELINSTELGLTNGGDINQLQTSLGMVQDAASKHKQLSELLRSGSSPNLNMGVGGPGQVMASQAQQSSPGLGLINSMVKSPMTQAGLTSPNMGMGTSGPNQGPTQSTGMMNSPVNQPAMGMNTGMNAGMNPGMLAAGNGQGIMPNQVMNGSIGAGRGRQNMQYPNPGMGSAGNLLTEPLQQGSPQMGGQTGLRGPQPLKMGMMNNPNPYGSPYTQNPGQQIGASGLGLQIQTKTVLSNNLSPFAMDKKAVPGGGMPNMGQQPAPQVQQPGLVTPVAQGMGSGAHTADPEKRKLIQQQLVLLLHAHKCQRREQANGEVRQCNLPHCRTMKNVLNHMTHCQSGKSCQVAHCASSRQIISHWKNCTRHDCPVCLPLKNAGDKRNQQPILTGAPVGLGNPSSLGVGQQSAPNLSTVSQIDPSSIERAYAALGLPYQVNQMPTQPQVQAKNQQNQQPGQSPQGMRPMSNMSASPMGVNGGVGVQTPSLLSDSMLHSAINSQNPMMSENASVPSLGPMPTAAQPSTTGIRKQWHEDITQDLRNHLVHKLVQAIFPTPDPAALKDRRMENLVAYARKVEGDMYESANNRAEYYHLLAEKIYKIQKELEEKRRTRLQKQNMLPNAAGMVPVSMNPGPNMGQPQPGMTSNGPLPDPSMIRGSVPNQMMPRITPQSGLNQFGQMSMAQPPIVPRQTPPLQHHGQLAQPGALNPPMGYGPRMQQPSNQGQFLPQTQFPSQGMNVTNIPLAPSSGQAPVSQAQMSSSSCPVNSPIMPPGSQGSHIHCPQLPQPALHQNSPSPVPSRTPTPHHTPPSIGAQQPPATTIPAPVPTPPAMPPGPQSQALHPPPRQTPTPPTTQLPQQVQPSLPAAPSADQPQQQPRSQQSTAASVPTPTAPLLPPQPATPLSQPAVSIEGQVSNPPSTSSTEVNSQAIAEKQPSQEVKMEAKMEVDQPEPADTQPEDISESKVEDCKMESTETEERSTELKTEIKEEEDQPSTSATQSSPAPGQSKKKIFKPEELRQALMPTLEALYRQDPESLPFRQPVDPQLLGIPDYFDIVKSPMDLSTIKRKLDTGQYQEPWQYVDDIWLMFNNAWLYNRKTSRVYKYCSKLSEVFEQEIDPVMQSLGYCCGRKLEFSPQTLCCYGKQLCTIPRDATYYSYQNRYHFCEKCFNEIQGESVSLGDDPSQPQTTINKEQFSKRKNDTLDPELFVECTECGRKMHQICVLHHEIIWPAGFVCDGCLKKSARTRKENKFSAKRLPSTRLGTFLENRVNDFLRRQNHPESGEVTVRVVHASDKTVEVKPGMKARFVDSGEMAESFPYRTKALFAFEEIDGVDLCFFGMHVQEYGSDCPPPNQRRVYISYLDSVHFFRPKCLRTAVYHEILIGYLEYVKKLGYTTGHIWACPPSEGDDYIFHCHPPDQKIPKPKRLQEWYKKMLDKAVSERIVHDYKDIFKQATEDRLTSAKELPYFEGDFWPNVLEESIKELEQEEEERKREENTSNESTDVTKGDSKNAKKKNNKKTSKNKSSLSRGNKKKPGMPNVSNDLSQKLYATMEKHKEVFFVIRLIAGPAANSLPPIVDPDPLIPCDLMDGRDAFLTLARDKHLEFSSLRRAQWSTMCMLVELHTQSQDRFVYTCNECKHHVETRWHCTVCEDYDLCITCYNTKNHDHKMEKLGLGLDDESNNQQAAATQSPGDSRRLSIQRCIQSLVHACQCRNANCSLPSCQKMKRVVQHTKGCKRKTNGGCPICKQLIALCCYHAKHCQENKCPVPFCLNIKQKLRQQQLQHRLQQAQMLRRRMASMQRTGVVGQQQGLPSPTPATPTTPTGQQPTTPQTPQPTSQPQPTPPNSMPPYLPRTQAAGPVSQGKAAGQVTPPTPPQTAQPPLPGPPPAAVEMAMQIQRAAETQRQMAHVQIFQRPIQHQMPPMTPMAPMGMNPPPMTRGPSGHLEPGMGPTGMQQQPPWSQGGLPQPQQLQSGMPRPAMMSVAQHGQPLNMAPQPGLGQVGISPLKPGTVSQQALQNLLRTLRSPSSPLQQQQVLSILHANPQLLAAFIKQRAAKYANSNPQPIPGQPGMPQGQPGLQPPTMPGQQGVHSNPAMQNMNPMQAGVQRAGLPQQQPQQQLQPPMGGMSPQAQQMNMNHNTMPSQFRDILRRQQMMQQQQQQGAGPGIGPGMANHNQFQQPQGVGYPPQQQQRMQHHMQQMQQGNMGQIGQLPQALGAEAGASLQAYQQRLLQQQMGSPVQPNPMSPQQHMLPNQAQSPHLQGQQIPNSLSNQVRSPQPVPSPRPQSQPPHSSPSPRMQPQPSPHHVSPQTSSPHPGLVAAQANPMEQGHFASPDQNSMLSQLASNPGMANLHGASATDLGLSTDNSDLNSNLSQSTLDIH
For the variant F52Y;F54Y;D56H, the “effect of a mutation on the interaction” value is reported as “disrupting interaction”.

Variants of B1 are the subject of a further assay. The following applies: with ep300_human EP300, Q09472. This is another data set of the same source.
Regarding F52Y;F54Y;D56H, the “effect of a mutation on the interaction” value is on record as “decreasing interaction”.
Same read-out and setting: in the case of R15S;P16A;R17T it was “decreasing interaction”; in that of C73G;C143G, “disrupting interaction”.
